“Also recorded” adds a separate entry of the source.
Legend:
[1] = molecular target: mouse c-Kit (SCF receptor) on mouse NSPCs (mouse) (UniProt P05532); test: cell-based or functional assay
[2] = molecular target: human c-Kit (SCF receptor) on human cells (NSPCs, HUVEC, HBMEC) (human) (UniProt P10721); test: cell-based or functional assay
SCID mice [3] = test: In vivo angiogenesis assay, subcutaneous Matrigel plugs with SCF or β-FGF; design: species or system mouse; conditions: subcutaneous Matrigel in adult SCID mice, fourteen days after injection
Description: Confluent-grown ECs were treated with 50 ng/ml of SCF for 5, 10, 15, and 30 min after 24 hr of serum starvation. The ECs were collected with RIPA lysis buffer (Upstate, Charlottesville, Va.) containing 50 mM NaF, 1 mM Na3VO4, […], and Protease Inhibitor Cocktail (Roche). The antibodies were purchased from Cell Signaling Technology, Inc. (Beverly, Mass.) or as mentioned otherwise. All the primary antibodies were used in a 1:1000 dilution except for the anti-SCF antibody, which was used in a 1:2000 dilution. The primary antibodies were anti-phospho-c-Kit, anti-phospho-MEK1/2 and anti-MEK1/2, anti-phospho-p44/42 MAPK and anti-p44/42 MAPK, anti-phospho-SAPK/JNK and anti-SAPK/JNK, anti-phospho-p38 MAPK and anti-p38 MAPK, anti-phospho-Akt and anti-Akt, anti-phospho-mTOR and anti-mTOR, anti-phospho-4E-BP1 and anti-4E-BP1, anti-SCF and anti-VEGF (Chemicon, Temecula, Calif.), and anti-β-tubulin (Sigma). Re-blotting was done after membranes were stripped by re-blot kit (Chemicon). Tie2 detection in Matrigel plugs from the in vivo Matrigel assay was carried out by immunoprecipitation and immunoblotting. The gel plugs were carefully separated from muscle and skin and homogenized with RIPA lysis buffer. The resulting total tissue lysates ([…]) were immunoprecipitated with Tie2 antibody (Santa Cruz Biotechnology, Inc., Santa Cruz, Calif.) and then analyzed by immunoblot with Tie2 antibody (Zadeh et al. 2004 Am J Pathol 162:467-476).
All adult mice (6-8 weeks of age) were from NCI-Fredrick, and the animal experiments were conducted on an animal experimentation protocol approved by the NCI's animal protection committee (the “ACUC”). […]

U251 glioma = test: Subcutaneously implanted U251 human glioma growth; type: in vivo, mouse; conditions: nude mice
endogenous NSPCs = test: In vivo progenitor cell migration, BrdU labeling and intracerebral rmSCF injection; design: species or system mouse
NIH 3T3 cells = test: Boyden chamber migration assay, NIH 3T3 negative control cells; type: cell-based; conditions: regardless of the concentration used
Description: (§1) The effects of SCF on NSPC migration were determined by a modified Boyden chamber assay as described previously (Sun, L. et al. 2001 Cancer Res. 61:4994-5001). A 96-well cell migration kit was utilized (Chemicon, Temecula, Calif., USA) and each well was separated into two chambers by a membrane with 8-μm pores. The cells were briefly trypsinized and adjusted to 4×10^5 cells/ml in 1:20 dilution of B27 medium without growth factors. Some cells were pretreated with a c-Kit-blocking antibody (ACK45, PharMingen, San Diego, Calif., USA) for 30 min at room temperature. Migration of NIH 3T3 cell was also assayed as a control. Recombinant mouse SCF (rmSCF) (R&D systems, Minneapolis, Minn., USA) was dissolved in the same medium and adjusted to the various concentrations. After different concentrations of SCF or brain tissue lysates were added to the lower chamber as attractants, 100 μl of the NSPCs (4×10^4) were applied to the upper chamber on the top of membrane. A group of control chambers without rmSCF was also included. After 4 hours of incubation at 37° C., the migratory cells on the bottom of the insert membrane were dissociated from the membrane by incubation with cell detachment buffer.

SCID mice [4] = test: In vivo angiogenesis assay, matrigel plug with rmSCF (Example 3); design: species or system mouse; conditions: rmSCF 50 ng/ml, subcutaneous, 7 days, vs PBS control
Description: Recombinant mouse SCF (rmSCF) was used at 50 ng/ml in an in vivo angiogenesis assay. The matrigel plug containing SCF or PBS control was placed subcutaneously in SCID mice for 7 days, and the blood vessel formation within the gel was examined by H&E staining. […] In the higher magnification figure on the right side, the red blood cells inside of the newly formed vessel are indicated by an arrow.

human NSPCs = test: Boyden chamber migration assay, human NSPCs; type: cell-based
Description: as §1

c-Kit [5] = molecular target: T1, c-Kit (Mus musculus, UniProt P05532); test: c-Kit tyrosine phosphorylation by immunoprecipitation and immunoblot, mouse NSPCs; type: cell-based; conditions: 100 ng/ml of rmSCF, 10 min
T1 construct: The 120-kDa and 140-kDa bands represent the c-Kit proteins in the human and mouse NSPCs; endogenous in cells; host or cells: mouse E14 NSPCs (neurospheres)
T1 sequence (P05532 25-979): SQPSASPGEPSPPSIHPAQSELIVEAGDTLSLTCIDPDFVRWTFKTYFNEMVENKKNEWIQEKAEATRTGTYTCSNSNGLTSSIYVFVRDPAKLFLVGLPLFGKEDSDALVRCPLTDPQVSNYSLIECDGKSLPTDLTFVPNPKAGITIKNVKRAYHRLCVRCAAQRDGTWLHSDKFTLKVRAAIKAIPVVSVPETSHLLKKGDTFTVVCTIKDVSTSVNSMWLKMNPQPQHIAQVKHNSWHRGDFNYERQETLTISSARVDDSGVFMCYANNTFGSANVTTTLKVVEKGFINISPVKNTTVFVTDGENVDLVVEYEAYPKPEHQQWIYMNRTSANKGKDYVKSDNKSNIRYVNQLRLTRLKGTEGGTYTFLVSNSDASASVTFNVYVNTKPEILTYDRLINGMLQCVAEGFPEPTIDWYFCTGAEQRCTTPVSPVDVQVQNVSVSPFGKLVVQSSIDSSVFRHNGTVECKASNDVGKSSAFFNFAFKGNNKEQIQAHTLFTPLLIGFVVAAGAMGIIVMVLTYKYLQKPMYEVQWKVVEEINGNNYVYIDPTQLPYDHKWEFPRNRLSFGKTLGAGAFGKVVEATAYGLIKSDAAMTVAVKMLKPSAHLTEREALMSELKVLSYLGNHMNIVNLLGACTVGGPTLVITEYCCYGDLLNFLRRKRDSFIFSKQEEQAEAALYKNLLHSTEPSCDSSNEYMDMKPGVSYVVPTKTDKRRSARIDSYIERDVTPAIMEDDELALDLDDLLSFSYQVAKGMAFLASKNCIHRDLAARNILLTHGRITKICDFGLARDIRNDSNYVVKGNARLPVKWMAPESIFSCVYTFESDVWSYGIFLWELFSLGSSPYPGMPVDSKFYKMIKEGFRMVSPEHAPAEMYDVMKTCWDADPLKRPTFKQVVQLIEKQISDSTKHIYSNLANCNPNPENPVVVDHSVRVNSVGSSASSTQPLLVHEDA
Description: (§2) Injured dorsal forebrains were dissected 24 hours, 3 days, 5 days, 7 days and 12 days after injury and were homogenized in a lysis buffer containing 50 mM Tris-HCl (pH 8.0), 120 mM NaCl, 0.5% Nonidet P-40, and Protease Inhibitor Cocktail (Roche, Indianapolis, Ind., USA). Brain tissue was kept on ice for 30 min and supernatants were collected after centrifugation. The brain lysates were separated by a 4-12% polyacrylamide gel electrophoresis (Invitrogen) and transferred to the membranes. The filters were blotted with rabbit polyclonal anti-SCF antibody (1:50 dilution; Chemicon, Temecula, Calif., USA). The NSPCs were treated or not treated with 100 ng/ml of rmSCF or were left untreated for 10 min and then were washed with ice-cold PBS. Some mouse NSPCs were treated with rat monoclonal c-Kit blocking antibody, (ACK4; PharMingen, San Diego, Calif., USA) for 30 min at room temperature before SCF stimulation. The NSPCs were resuspended in a protease inhibitor mixture containing radioimmunoprecipitation (RIPA) buffer (1% NP-40, 0.5% Sodium deoxycholate, 0.1% SDS, 0.1 mg/ml PMSF, 0.1 mM NaVO4 in PBS). The cell lysates were pre-cleared with protein A-Sepharose (Amersham Pharmacia Biotech, Piscataway, N.J., USA), incubated with rabbit polyclonal antibody to c-Kit (Clone H-300, Santa Cruz, San Diego, Calif., USA), and collected on protein A-Sepharose beads. […]

mouse NSPCs = test: Boyden chamber migration assay, mouse NSPCs; type: cell-based
Description: as §1

bMVEC-B cells = test: bMVEC-B DNA synthesis by thymidine incorporation (Example 3); type: cell-based; conditions: 72 hours
Description: To specifically confirm the pro-angiogenic effects of SCF in the brain, bMVEC-B cells were used. The cells were cultured in the presence of different concentrations of rmSCF (1 ng/ml to 250 ng/ml) or 0.1% BSA only medium for 72 hours. The rate of DNA synthesis was measured by thymidine incorporation.

c-Kit [6] = molecular target: T2, c-Kit (Homo sapiens, UniProt P10721); test: c-Kit tyrosine phosphorylation by immunoprecipitation and immunoblot, human NSPCs; type: cell-based; conditions: 100 ng/ml of rmSCF, 10 min
T2 construct: The 120-kDa and 140-kDa bands represent the c-Kit proteins in the human and mouse NSPCs; endogenous in cells; host or cells: human fetal NSPCs (neurospheres)
Description: as §2

[7] = rmSCF 3 μg intracerebral, day 7, SCID mice

Chain of mouse c-Kit (SCF receptor) on mouse NSPCs (mouse) (P05532 25-979): as above

Recombinant mouse SCF (rmSCF) (from UniProt P20826 26-189) (ligand)
lowest rmSCF concentration with a statistically significant increase in NSPC migration (Boyden chamber) [1]: 5 ng/mL | lowest rmSCF concentration with a statistically significant increase in NSPC migration (Boyden chamber) [2]: 10 ng/mL

β-FGF: positive control angiogenic growth factor (R&D Systems) [reference compound]
angiogenesis in Matrigel plug (H&E, vWF-positive vessels) (SCID mice [3]): high density of blood vessels; also recorded: induced substantial angiogenesis

bevacizumab: VEGF antibody (Genentech), systemically administered
subcutaneous tumor growth (U251 glioma): suppressed subcutaneously implanted human glioma growth; also recorded: profound tumor growth suppression

B1: rmSCF: Recombinant mouse SCF (rmSCF) (R&D systems) (protein)
chain: KEICGNPVTDNVKDITKLVANLPNDYMITLNYVAGMDVLPSHCWLRDMVIQLSLSLTTLLDKFSNISEGLSNYSIIDKLGKIVDDLVLCMEENAPKNIKESPKRPETRSFTPEEFFSIFNRSIDAFKDFMVASDTSDCVLSSTLGPEKDSRVSVTKPFMLPPVA
number of BrdU-positive cells in SCF-injected area (1.5-mm^2 section) compared to the contralateral side (endogenous NSPCs; [7]): approximately twice | number of BrdU-positive cells in injected area, SCF-treated compared to PBS-treated animals (endogenous NSPCs; [7]): 2.3 times | BrdU-positive cells in the SCF-injected area (endogenous NSPCs; vs contralateral side and PBS-injected animals, day 7): significant numbers of BrdU-positive cells | migration of NIH 3T3 cells (NIH 3T3 cells): did not induce migration | blood vessel formation within the matrigel plug (H&E) (SCID mice [4]): obviously abundant | lowest SCF concentration with statistically significant increase in cell migration (human NSPCs): 10 ng/mL | NSPC migration (human NSPCs; rmSCF 5-500 ng/ml, 4 hours): stimulated in a dose-dependent manner; also recorded: significant chemoattractive effect on NSPC in a dose dependent manner | c-Kit tyrosine phosphorylation following SCF stimulation (c-Kit [5]): strongly phosphorylated | lowest SCF concentration with statistically significant increase in cell migration (mouse NSPCs): 5 ng/mL | NSPC migration (mouse NSPCs; rmSCF 5-500 ng/ml, 4 hours): stimulated in a dose-dependent manner; also recorded: significant chemoattractive effect on NSPC in a dose dependent manner | lowest concentration at which bMVEC-B responded to SCF stimulation (bMVEC-B cells): 1 ng/mL | bMVEC-B DNA synthesis (thymidine incorporation) (bMVEC-B cells; rmSCF 1 ng/ml to 250 ng/ml): strongly stimulated bMVEC-B DNA synthesis | c-Kit tyrosine phosphorylation following SCF stimulation (c-Kit [6]): strongly phosphorylated
